Results from US20200247901A1.

Biological target: mesothelin on RH29 mesothelioma cells (V and M variant ratio 50:50) (human) (UniProt Q13421)
Assay: cell-based or functional assay

Chain of mesothelin on RH29 mesothelioma cells (V and M variant ratio 50:50) (human) (Q13421 other isoform, or with tags, fused parts or gaps mutant limits assumed): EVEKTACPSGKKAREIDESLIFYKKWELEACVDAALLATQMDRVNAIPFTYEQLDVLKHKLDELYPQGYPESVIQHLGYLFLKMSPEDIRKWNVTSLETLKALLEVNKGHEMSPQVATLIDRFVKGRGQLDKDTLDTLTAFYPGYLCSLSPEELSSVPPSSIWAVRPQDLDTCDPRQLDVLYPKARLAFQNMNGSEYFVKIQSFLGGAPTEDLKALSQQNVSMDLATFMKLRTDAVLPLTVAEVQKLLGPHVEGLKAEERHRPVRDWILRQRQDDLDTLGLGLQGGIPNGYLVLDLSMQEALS

B1: 15B6 anti-mesothelin antibody (IgG2b) (antibody, V domains shown)
VH: EVQLQQSGPVLVKPGASVKISCKASGYSFTGYYMHWVRQSLVKRLEWIGRINPYTGVPSYKHNFKDKASLTVDKSSSTAYMELHSLTSEDSAVYYCARELGGYWGQGTTLTVSS
VL: QAVVTQESALTTSPGETVTLTCRSSTGAVTTGNYPNWVQEKPDHLFTGLIAGTNNRAPGVPARFSGSLIGDKAALTITGAQTEDEAIYFCALWFSSHWVFGGGTKLTVL
decrease in mesothelin shedding from RH29 cells (ELISA of shed mesothelin, OD value): 50%
